From article PMC4499140 (Nucleic Acids Research, 2015)

T1: Rv1222 (Mycobacterium tuberculosis H37Rv) (UniProt L0T905)
T1 sequence: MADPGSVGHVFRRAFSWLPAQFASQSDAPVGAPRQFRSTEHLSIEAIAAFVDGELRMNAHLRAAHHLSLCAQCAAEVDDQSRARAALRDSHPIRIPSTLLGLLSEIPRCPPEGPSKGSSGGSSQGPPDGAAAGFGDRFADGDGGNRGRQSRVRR

T2: Mycobacterium tuberculosis sigma factor E (Mycobacterium tuberculosis, UniProt P9WGG7 1-257)
T2 sequence: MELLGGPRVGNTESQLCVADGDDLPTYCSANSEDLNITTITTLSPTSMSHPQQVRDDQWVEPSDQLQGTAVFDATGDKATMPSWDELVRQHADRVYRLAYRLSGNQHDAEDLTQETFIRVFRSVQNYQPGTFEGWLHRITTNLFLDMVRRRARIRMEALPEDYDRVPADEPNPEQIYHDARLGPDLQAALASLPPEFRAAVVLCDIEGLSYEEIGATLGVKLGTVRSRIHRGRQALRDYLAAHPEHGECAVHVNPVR

T3: Mycobacterium tuberculosis sigma factor A (Mycobacterium tuberculosis, UniProt P9WGI1 1-528)
T3 sequence: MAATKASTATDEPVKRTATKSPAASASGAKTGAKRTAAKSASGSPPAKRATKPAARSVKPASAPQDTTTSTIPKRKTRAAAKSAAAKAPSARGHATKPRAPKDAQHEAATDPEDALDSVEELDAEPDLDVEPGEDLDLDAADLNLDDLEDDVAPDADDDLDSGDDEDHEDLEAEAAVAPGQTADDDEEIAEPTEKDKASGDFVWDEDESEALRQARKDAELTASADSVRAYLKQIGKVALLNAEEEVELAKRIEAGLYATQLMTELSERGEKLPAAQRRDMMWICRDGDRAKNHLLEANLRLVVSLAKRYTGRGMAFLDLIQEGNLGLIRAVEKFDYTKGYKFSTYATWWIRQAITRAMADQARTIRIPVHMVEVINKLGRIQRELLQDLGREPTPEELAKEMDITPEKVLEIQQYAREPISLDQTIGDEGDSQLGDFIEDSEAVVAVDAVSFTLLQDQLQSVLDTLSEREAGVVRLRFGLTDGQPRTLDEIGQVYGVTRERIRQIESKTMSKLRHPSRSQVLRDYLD

B1: Rv1222 of Mycobacterium tuberculosis, TMR labelled (natural protein)
chain: T1 sequence

Tests used:
[1] = molecular target: T1, Rv1222 (Mycobacterium tuberculosis H37Rv); assay: fluorescence anisotropy
[2] = molecular target: E. coli DNA polymerase (Klenow fragment) (E. coli, UniProt P00582 324-928); assay: fluorescence polarisation
[3] = molecular target: T2, Mycobacterium tuberculosis sigma factor …; assay: fluorescence polarisation
[4] = molecular target: T3, Mycobacterium tuberculosis sigma factor …; assay: fluorescence polarisation

E. coli DNA polymerase (Klenow fragment), sequence (P00582 324-928): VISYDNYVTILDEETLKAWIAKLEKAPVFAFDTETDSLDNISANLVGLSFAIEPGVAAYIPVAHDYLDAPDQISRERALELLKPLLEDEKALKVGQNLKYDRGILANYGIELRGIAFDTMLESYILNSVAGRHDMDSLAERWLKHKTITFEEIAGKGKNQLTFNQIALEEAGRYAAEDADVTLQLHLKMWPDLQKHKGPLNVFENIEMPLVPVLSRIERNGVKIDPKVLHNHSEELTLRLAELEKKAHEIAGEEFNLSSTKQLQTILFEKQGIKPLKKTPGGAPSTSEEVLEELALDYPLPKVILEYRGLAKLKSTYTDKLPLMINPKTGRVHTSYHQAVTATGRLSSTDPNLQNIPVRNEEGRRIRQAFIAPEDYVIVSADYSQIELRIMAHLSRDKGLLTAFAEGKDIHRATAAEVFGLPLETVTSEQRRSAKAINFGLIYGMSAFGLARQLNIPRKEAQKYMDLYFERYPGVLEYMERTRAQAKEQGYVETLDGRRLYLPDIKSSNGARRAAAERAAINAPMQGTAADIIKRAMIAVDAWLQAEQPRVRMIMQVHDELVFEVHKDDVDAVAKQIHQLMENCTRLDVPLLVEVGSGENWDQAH

Row | Molecule | Kd [1] [nM] | Kd [2] [nM] | Kd [3] [nM] | Kd [4] [nM]
1 | GTGAGTATCTCGCAGTCCGACGCGTCGTTGGCCGCCGTCCCCGCCGTGGATCAGTTCGATCCGTCGTCAGGTGCATCAGGTGGCTACGACACCCCGCTGGGCATCACCAATCCGCCCATCGACGAGTTGCTGGACCGCGTCTCGAGCAAATACGCCCTCGTGATCTATGCGGCAAAGCGTGCCCGGCAGATCAACGACTACTACAACCAGCTTGGCGAGGGCATCCTCGAATATGTCGGTCCGCTGGTTGAGCCGGGGTTGCAAGAGAAGCCGTTGTCCATCGCGTTGCGCGAGATCCACGCCGATCTGCTCGAGCACACCGAGGGCGAGTAG (double strand) [promoterless DNA fragment] | 52 | – | – | –
2 | B1 | – | 245 ± 78 | ~270 | ~690
